Test results: US20230002478A1 (TWIST BIOSCIENCE, published 2023)

B1: 6-3 (Fc fusion)
chain: EVQLVESGGGLVQPGGSLRLSCAASGFTFSPSWMGWFRQAPGKEREFVATINEYGGRNYADSVKGRFTISADNSKNTAYLQMNSLKPEDTAVYYCARVDRDFDYWGQGTLVTVSS
B2: 6-63 (Fc fusion)
chain: EVQLVESGGGLVQPGGSLRLSCAASGQTFNMGWFRQAPGKEREFVAAIGSGGSTSYADSVKGRFTISADNSKNTAYLQMNSLKPEDTAVYYCWRLGNDYFDYWGQGTLVTVSS

How the values were obtained:
[1] = molecular target: T1, SARS-CoV-2 S1 (HV69-70del, N501Y, D614G) (SARS-CoV-2, UniProt P0DTC2 16-685); experiment: SPR
T1 construct: domain: S1

[2] = molecular target: T2, SARS-CoV-2 S1 (HV69-70del, Y453F, D614G) (SARS-CoV-2, UniProt P0DTC2 16-685); experiment: SPR
T2 construct: domain: S1

Binder | Kd [1] [nM] | Kd [2] [nM]
B1 | 9.3 | 23
B2 | 63 | 96
